Experimental data reported in patent publication US20240417476A1 (ATYR PHARMA, published 2024).
Ends that are not written are not given here.

T1: NRP2a_scan 4 peptide (biotinylated) (human, also: biotin-conjugated, site not given here)
T1 peptide: EGYEDEIDDEYE

T2: NRP2a_scan 5 peptide (biotinylated) (human, also: biotin-conjugated, site not given here)
T2 peptide: EDEIDDEYEVDW

T3: Mid-NRP2A peptide (biotinylated) (human, biotin-conjugated, site not stated)
T3 peptide: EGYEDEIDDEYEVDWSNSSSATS

T4: NRP2a_scan 7 peptide (biotinylated) (human, also: biotin-conjugated, site not given here)
T4 peptide: EYEVDWSNSSSA

T5: NRP2a_scan 1 peptide (biotinylated) (human, also: biotin-conjugated, site not given here)
T5 peptide: VDIPEIHEREGY

T6: NRP2a_scan 2 peptide (biotinylated) (human, also: biotin-conjugated, site not given here)
T6 peptide: PEIHEREGYEDE

T7: NRP2a_scan 3 peptide (biotinylated) (human, also: biotin-conjugated, site not given here)
T7 peptide: HEREGYEDEIDD

T8: NRP2a_scan 6 peptide (biotinylated) (human, also: biotin-conjugated, site not given here)
T8 peptide: IDDEYEVDWSNS

T9: NRP2v3
T9 construct: not the NanoLuc-tagged construct m33; also called human NRP2 v3 expressed on Expi293F cells; NRP2a v3
T9 chain: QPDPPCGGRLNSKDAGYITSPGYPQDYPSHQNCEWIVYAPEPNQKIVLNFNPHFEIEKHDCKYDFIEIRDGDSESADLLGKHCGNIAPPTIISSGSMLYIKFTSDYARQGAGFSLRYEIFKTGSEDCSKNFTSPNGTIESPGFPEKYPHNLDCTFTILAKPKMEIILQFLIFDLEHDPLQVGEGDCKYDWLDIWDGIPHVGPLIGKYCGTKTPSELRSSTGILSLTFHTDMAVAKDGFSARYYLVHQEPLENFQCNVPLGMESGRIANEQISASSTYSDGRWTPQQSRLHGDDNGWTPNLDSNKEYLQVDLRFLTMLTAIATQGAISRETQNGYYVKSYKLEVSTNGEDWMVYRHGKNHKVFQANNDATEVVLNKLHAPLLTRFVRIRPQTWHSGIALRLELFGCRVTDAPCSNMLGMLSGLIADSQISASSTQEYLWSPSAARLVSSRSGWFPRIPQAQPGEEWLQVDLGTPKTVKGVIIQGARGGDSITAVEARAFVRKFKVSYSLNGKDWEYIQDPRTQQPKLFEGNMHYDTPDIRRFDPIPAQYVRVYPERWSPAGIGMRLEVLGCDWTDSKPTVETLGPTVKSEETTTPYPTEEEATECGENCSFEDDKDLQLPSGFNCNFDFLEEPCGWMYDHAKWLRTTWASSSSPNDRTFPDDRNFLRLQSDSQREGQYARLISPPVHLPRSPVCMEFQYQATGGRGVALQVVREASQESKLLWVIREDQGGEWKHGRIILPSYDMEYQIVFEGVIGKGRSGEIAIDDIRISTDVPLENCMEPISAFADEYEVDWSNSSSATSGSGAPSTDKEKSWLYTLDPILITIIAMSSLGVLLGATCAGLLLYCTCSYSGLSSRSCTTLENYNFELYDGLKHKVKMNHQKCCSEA

T10: human NRP2b expressed on Expi293F cells (human)
T10 construct: also called full length NRP2b
T10 chain: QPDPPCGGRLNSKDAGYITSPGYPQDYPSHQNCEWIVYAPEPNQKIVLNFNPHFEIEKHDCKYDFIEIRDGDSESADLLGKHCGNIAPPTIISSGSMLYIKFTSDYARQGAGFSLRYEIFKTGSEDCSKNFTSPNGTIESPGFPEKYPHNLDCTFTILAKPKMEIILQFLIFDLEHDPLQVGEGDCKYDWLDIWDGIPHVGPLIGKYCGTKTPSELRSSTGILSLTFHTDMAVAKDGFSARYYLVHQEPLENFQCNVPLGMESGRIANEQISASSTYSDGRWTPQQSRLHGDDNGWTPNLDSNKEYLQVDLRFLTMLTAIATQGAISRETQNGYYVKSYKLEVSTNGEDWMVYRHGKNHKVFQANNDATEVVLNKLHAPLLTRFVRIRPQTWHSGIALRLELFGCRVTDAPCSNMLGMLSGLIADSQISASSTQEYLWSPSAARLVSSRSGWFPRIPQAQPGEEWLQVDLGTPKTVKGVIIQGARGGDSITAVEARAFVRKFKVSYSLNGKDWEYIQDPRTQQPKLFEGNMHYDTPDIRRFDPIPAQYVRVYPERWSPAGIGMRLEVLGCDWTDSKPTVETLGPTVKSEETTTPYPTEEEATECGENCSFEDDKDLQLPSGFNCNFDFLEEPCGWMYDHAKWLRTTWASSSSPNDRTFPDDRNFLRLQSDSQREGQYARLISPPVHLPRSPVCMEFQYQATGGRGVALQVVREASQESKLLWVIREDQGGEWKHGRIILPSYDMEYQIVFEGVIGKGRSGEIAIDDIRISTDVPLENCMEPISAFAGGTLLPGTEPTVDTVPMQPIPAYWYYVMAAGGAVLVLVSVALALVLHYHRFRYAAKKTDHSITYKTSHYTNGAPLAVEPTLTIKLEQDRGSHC

T11: NRP2b peptide (biotinylated) (human, biotin-conjugated, site not stated)
T11 construct: also called NRP2b isoform specific peptide
T11 peptide: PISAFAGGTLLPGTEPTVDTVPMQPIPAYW

T12: Mid-mNRP2A peptide (biotinylated) (mouse, biotin-conjugated, site not stated)
T12 peptide: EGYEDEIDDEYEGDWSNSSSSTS

B1: aNRP2-37v2 (antibody, V domains shown)
VH: DVKLVESGEGLVKPGGSLKLSCAASGFTFSDYALSWVRQTPEKRLEWVAYISSGGDYIYYADTVRGRFTISRDNARNTLYLQMSSLQSEDTAIYYCTRGGQDDYWGQGTTLTVSS
VL: DVVMTQTPLSLPVILGDQASISCRSSQSLVHSNGNTYLQWYLQKPGQSPKLLIYKVSNRFSGVPDRFSGSGSGTDFTLKISRVEAEDLGVYFCSQSTHVPFTFGSGTNLEIK
notes: Mouse monoclonal (captured by anti-murine kappa, detected with anti-mouse IgG)
B2: aNRP2-406v2 (antibody, V domains shown)
VH: EVQLQQSGPELVKPGASVKISCKASGYSFTGYFMNWVKQSHGKSLEWIGRINPYNGDTFYNQKFKGKATLTVDKSSSTAHMALLSLTSEDSAVYYCGREVAEVPFDYWGQGTTLTVSS
VL: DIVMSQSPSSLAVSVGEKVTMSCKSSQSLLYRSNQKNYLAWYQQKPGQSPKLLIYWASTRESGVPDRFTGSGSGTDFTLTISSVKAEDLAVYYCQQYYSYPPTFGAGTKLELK
notes: Mouse monoclonal
B3: aNRP2-407v2 (antibody, V domains shown)
VH: EVQLQQSGPELVKPGASVTISCKASGYSFTGYYMHWVKQSHVKSLEWIGRINPYNGATSYSQNFKDKASLTIDKSSSTAYMELHSLTSEDSAVYYCAREETTAPFTYWGQGTLVTVSA
VL: DIVMSQSPSSLAVSVGEKVTMSCKSSQSLLYSSNQKNYLAWYQQKPGQSPKLLIYWASTRESGVPDRFTGSGSGTDFTLTISSVQAEDLAVYFCQHYYSYPPTFGGGTKLEIK
notes: Mouse monoclonal
B4: aNRP2-402v2 (antibody, V domains shown)
VH: EVQLVESGGDLVKPGGSLKLSCAASGFTFSNYAMSWVRQTPEKRLEWVASISDGGSYTYYPDNVKGRFTISRDSAKKSLYLQMSHLKSEDTAMYYCTKDGGPREGYFDVWGTGTTVTVSS
VL: DVLMTQTPLSLPVSLGDQASISCRSSQSIVHSNGNTYLEWYLQKPGQSPKLLIYKVSNRFSGVPDRFSGSGSGTDFTLKISRVEAEDLGVYYCFQGSHVPYTFGGGTKLEIK
notes: Mouse monoclonal

Experiments:
[1] = biological target: T13, human NRP2a v2 expressed on Expi293F cells (human, UniProt O60462 23-931); experiment: flow cytometry, Expi293F cells transfected with the target, fluorescent anti-mouse secondary; MFI signal relative to mock-transfected cells
T13 construct: cDNA Origene RCC220706; also called NRP2 v2
Protocol: (§1) Signal to noise was calculated as the staining intensity of transfected cells compared to an un-transfected ‘mock’ population.

[2] = biological target: T1, NRP2a_scan 4 peptide (biotinylated); experiment: BLI, peptide on sensor;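 further: octet RED96e biolayer interferometry with biotin-conjugated NRP2 peptides spanning isoform-specific regions (human and mouse) loaded on biosensors, antibodies applied at 50 nM, association read over 300 s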
Protocol: (§2) Biolayer interferometry (BLI) experiments were carried out on an Octet RED96e instrument (Sartorius) to further characterize antibody affinities to the NRP2 peptides screened above. Antibodies were epitope mapped using peptides that span the NRP2a isoform specific region; antibodies were also tested for reactivity to an NRP2b isoform specific peptide and cross-reactivity to mNRP2a and mNRP2b peptides (see Table E2 for peptide sequences).
(§3) Antibodies and peptides were diluted in 1×PBS, 0.1% BSA, 0.02% Tween 20, pH 7.4. […] The biosensors were then dipped into 50 nM solutions of each antibody and read for 300s. The biosensors were regenerated in 10 mM glycine, pH 1.5 in between cycles of different antibodies.

[3] = biological target: T2, NRP2a_scan 5 peptide (biotinylated); experiment: BLI, peptide on sensor;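 further: octet RED96e biolayer interferometry with biotin-conjugated NRP2 peptides spanning isoform-specific regions (human and mouse) loaded on biosensors, antibodies applied at 50 nM, association read over 300 s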
Protocol: as §2, §3

[4] = biological target: T3, Mid-NRP2A peptide (biotinylated); experiment: BLI, peptide on sensor;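 further: octet RED96e biolayer interferometry with biotin-conjugated NRP2 peptides spanning isoform-specific regions (human and mouse) loaded on biosensors, antibodies applied at 50 nM, association read over 300 s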
Protocol: as §2, §3

[5] = biological target: T4, NRP2a_scan 7 peptide (biotinylated); experiment: BLI, peptide on sensor;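 further: octet RED96e biolayer interferometry with biotin-conjugated NRP2 peptides spanning isoform-specific regions (human and mouse) loaded on biosensors, antibodies applied at 50 nM, association read over 300 s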
Protocol: as §2, §3

[6] = biological target: T5, NRP2a_scan 1 peptide (biotinylated); experiment: BLI, peptide on sensor
Protocol: as §2, §3

[7] = biological target: T6, NRP2a_scan 2 peptide (biotinylated); experiment: BLI, peptide on sensor
Protocol: as §2, §3

[8] = biological target: T7, NRP2a_scan 3 peptide (biotinylated); experiment: BLI, peptide on sensor
Protocol: as §2, §3

[9] = biological target: T14, mNRP2b peptide (biotinylated) (mouse, biotin-conjugated, site not stated); experiment: BLI, peptide on sensor
T14 sequence (peptide, as listed by the source): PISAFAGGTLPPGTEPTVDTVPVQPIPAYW

[10] = biological target: Short NRP2A peptide (biotinylated) (human, biotin-conjugated, site not stated); experiment: BLI, peptide on sensor
[11] = biological target: T8, NRP2a_scan 6 peptide (biotinylated); experiment: BLI, peptide on sensor
Protocol: as §2, §3

NRP2v3 = biological target: T9, NRP2v3; experiment: flow cytometry, Expi293F cells transfected with the target, fluorescent anti-mouse secondary; MFI signal relative to mock-transfected cells
Protocol: as §1

[12] = biological target: T15, NRP2A peptide (biotinylated) (human, biotin-conjugated, site not stated); experiment: BLI, isoform peptide on sensor, 50 nM antibody
T15 construct: also called NPR2A; NRP2a specific peptide

[13] = biological target: T10, human NRP2b expressed on Expi293F cells; experiment: flow cytometry, Expi293F cells transfected with the target, fluorescent anti-mouse secondary; MFI signal relative to mock-transfected cells
Protocol: as §1

[14] = biological target: T11, NRP2b peptide (biotinylated); experiment: BLI, peptide on sensor
[15] = biological target: T12, Mid-mNRP2A peptide (biotinylated); experiment: BLI, peptide on sensor
Protocol: as §2, §3

[16] = biological target: T14, mNRP2b peptide (biotinylated); experiment: BLI, peptide on sensor, 50 nM antibody
[17] = biological target: T16, mNRP2A peptide (biotinylated) (mouse, biotin-conjugated, site not stated); experiment: BLI, peptide on sensor, 50 nM antibody
T16 construct: also called mouse NRP2 isoform a peptide

[18] = biological target: T2, NRP2a_scan 5 peptide (biotinylated); experiment: BLI, peptide on sensor, 50 nM antibody
[19] = biological target: T3, Mid-NRP2A peptide (biotinylated); experiment: BLI, peptide on sensor, 50 nM antibody
[20] = biological target: T8, NRP2a_scan 6 peptide (biotinylated); experiment: BLI, peptide on sensor, 50 nM antibody
[21] = biological target: T17, Human NRP2a v2 (926aa) in pBiT2.1-C with C-terminal split NanoLuc tag, expressed in Expi293 cells (human, UniProt O60462 23-931); experiment: CCL21-induced NRP2a/CCR7 receptor dimerization (NanoBiT, Example 7); mark beside the epitope box
T17 construct: cDNA Origene RCC220706, isoform 2; also called pBiT2.1-C-NRP2v2 (isoform 2); NRP2 v2; not shown: vector-encoded spacer and small split NanoLuc fragment (pBiT2.1-C)

[22] = biological target: T11, NRP2b peptide (biotinylated); experiment: peptide ELISA

Binder | binding result [1] | binding result [2] | binding result [3] | binding result [4] | binding result [5] | binding result [6] | binding result [7] | binding result [8] | binding result [10] | binding result [11] | binding result (NRP2v3) | binding result [12] | binding result [13] | binding result [15] | binding result [16] | binding result [17] | further results
B1 | binds | no binding (tested: 50 nM) | no binding (tested: 50 nM) | no binding (tested: 50 nM) | no binding (tested: 50 nM) | no binding (tested: 50 nM) | no binding (tested: 50 nM) | no binding (tested: 50 nM) | no binding (tested: 50 nM) | no binding (tested: 50 nM) | no binding | binds | no binding | – | – | – | binding result [9]: no binding (tested: 50 nM); binding result [14]: no binding (tested: 50 nM)
B2 | binds | no binding (tested: 50 nM) | no binding (tested: 50 nM) | no binding (tested: 50 nM) | no binding (tested: 50 nM) | no binding (tested: 50 nM) | no binding (tested: 50 nM) | no binding (tested: 50 nM) | no binding (tested: 50 nM) | no binding (tested: 50 nM) | binds | binds | – | no binding (tested: 50 nM) | binds | binds | –
B3 | binds | no binding (tested: 50 nM) | no binding (tested: 50 nM) | no binding (tested: 50 nM) | no binding (tested: 50 nM) | no binding (tested: 50 nM) | no binding (tested: 50 nM) | no binding (tested: 50 nM) | no binding (tested: 50 nM) | no binding (tested: 50 nM) | binds | binds | – | no binding (tested: 50 nM) | binds | binds | –
B4 | – | no binding (tested: 50 nM) | – | – | no binding (tested: 50 nM) | no binding (tested: 50 nM) | no binding (tested: 50 nM) | no binding (tested: 50 nM) | no binding (tested: 50 nM) | – | binds | binds | no binding | – | – | binds | binding result [18]: binds; binding result [19]: binds; binding result [20]: binds; blocks receptor dimerization [21]: < 50%; binding result [22]: no binding (tested: <3x blank)
